Measured values as given in IntAct's records for PubMed 11042109.

B1: WW domain-binding protein 1 (Mus musculus), P97764 (parent)
chain: MARASSRNSSEEAWGSLQAPQQQQSPAASSLEGAIWRRAGTQTRALDTILYHPQQSHLLRELCPGVNTQPYLCETGHCCGETGCCTYYYELWWFWLLWTVLILFSCCCAFRHRRAKLRLQQQQRQREINLLAYHGACHGAGPVPTGSLLDLRLLSAFKPPAYEDVVHHPGTPPPPYTVGPGYPWTTSSECTRCSSESSCSAHLEGTNVEGVSSQQSALPHQEGEPRAGLSPVHIPPSCRYRRLTGDSGIELCPCPDSSEGEPLKEARASASQPDLEDHSPCALPPDSVSQVPPMGLASSCGDIP
B2: Protein BEAN1 (Mus musculus), Q9EQG5 (parent)
chain: MSFKRPCPLARYNRTSYFYPTTFSESSEHSHLLVSPVLVASAVIGVVITLSCITIIVGSIRRDRQARIQRHHHRHRRHHHHHRHRRRRHREYASGGHTHSRSSPRMPYACSPAEDWPPPLDVSSEGDVDVTVLWELYPDSPPGYEECMGPGATQLYVPTDAPPPYSMTDSCPRLNGALDSDSGQSRSHRQQEQRTQGQSRLHTVSMDTLPPYEAVCGTGSPSDLLPLPGPEPWPSNSQGSPIPTQAPMPSPERIV
B3: WW domain-binding protein 2 (Mus musculus), P97765 (parent)
chain: MALNKNHSEGGGVIVNNTESILMSYDHVELTFNDMKNVPEAFKGTKKGTVYLTPYRVIFLSKGKDAMQSFMMPFYLMKDCEIKQPVFGANFIKGIVKAEAGGGWEGSASYKLTFTAGGAIEFGQRMLQVASQASRGEVPNGAYGYPYMPSGAYVFPPPVANGMYPCPPGYPYPPPPPEFYPGPPMMDGAMGYVQPPPPPYPGPMEPPVSGPSAPATPAAEAKAAEAAASAYYNPGNPHNVYMPTSQPPPPPYYPPEDKKTQ

Variants of: B1
Details: with nedd4_mouse Nedd4, P46935
Target sequence in this assay (P46935 whole entry): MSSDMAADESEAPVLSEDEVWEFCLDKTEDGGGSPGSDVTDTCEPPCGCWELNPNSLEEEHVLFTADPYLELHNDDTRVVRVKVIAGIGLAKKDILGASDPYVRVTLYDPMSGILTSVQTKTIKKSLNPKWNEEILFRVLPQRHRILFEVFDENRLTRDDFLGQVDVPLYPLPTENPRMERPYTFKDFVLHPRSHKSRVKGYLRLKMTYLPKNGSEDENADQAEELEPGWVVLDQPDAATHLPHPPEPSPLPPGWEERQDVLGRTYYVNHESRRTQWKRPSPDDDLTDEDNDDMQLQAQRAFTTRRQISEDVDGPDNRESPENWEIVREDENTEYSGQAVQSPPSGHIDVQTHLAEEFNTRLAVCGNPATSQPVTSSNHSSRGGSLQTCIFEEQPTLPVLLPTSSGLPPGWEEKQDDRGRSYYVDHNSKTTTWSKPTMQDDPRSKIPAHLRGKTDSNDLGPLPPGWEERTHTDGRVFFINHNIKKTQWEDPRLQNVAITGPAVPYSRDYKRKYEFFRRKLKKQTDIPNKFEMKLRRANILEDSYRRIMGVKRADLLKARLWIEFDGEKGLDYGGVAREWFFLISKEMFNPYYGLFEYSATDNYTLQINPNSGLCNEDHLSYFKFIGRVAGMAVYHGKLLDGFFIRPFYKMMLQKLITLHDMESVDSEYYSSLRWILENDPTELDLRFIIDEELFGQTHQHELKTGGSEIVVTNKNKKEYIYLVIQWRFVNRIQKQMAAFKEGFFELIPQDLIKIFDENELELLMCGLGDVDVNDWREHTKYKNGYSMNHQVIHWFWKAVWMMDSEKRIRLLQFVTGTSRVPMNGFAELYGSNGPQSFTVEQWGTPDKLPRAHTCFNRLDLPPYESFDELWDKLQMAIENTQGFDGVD

Row | effect of a mutation on the interaction | Variant
1 | disrupting interaction strength | MARASSRNSSEEAWGSLQAPQQQQSPAASSLEGAIWRRAGTQTRALDTILYHPQQSHLLRELCPGVNTQPYLCETGHCCGETGCCTYYYELWWFWLLWTVLILFSCCCAFRHRRAKLRLQQQQRQREINLLAYHGACHGAGPVPTGSLLDLRLLSAFKPPAAEDVVHHPGTPPPPYTVGPGYPWTTSSECTRCSSESSCSAHLEGTNVEGVSSQQSALPHQEGEPRAGLSPVHIPPSCRYRRLTGDSGIELCPCPDSSEGEPLKEARASASQPDLEDHSPCALPPDSVSQVPPMGLASSCGDIP [Y162A]

Variants of: B1
Details: with nedd4_mouse Nedd4, P46935
Remark: another data set of the same source
Target sequence in this assay (P46935 whole entry): as the sequence (P46935 whole entry) above

Row | effect of a mutation on the interaction | Variant
2 | disrupting interaction strength | MARASSRNSSEEAWGSLQAPQQQQSPAASSLEGAIWRRAGTQTRALDTILYHPQQSHLLRELCPGVNTQPYLCETGHCCGETGCCTYYYELWWFWLLWTVLILFSCCCAFRHRRAKLRLQQQQRQREINLLAYHGACHGAGPVPTGSLLDLRLLSAFKPPAYEDVVHHPGTPPPPATVGPGYPWTTSSECTRCSSESSCSAHLEGTNVEGVSSQQSALPHQEGEPRAGLSPVHIPPSCRYRRLTGDSGIELCPCPDSSEGEPLKEARASASQPDLEDHSPCALPPDSVSQVPPMGLASSCGDIP [Y176A]

Variants of: B2
Details: with nedd4_mouse Nedd4, P46935
Target sequence in this assay (P46935 whole entry): as the sequence (P46935 whole entry) above

Row | effect of a mutation on the interaction | Variant
3 | disrupting interaction strength | MSFKRPCPLARYNRTSYFYPTTFSESSEHSHLLVSPVLVASAVIGVVITLSCITIIVGSIRRDRQARIQRHHHRHRRHHHHHRHRRRRHREYASGGHTHSRSSPRMPYACSPAEDWPPPLDVSSEGDVDVTVLWELYPDSPPGYEECMGPGATQLYVPTDAPPPASMTDSCPRLNGALDSDSGQSRSHRQQEQRTQGQSRLHTVSMDTLPPYEAVCGTGSPSDLLPLPGPEPWPSNSQGSPIPTQAPMPSPERIV [Y165A]
4 | disrupting interaction strength | MSFKRPCPLARYNRTSYFYPTTFSESSEHSHLLVSPVLVASAVIGVVITLSCITIIVGSIRRDRQARIQRHHHRHRRHHHHHRHRRRRHREYASGGHTHSRSSPRMPYACSPAEDWPPPLDVSSEGDVDVTVLWELYPDSPPGAEECMGPGATQLYVPTDAPPPYSMTDSCPRLNGALDSDSGQSRSHRQQEQRTQGQSRLHTVSMDTLPPYEAVCGTGSPSDLLPLPGPEPWPSNSQGSPIPTQAPMPSPERIV [Y144A]
5 | disrupting interaction strength | MSFKRPCPLARYNRTSYFYPTTFSESSEHSHLLVSPVLVASAVIGVVITLSCITIIVGSIRRDRQARIQRHHHRHRRHHHHHRHRRRRHREYASGGHTHSRSSPRMPYACSPAEDWPPPLDVSSEGDVDVTVLWELYPDSPPGAEECMGPGATQLYVPTDAPPPASMTDSCPRLNGALDSDSGQSRSHRQQEQRTQGQSRLHTVSMDTLPPYEAVCGTGSPSDLLPLPGPEPWPSNSQGSPIPTQAPMPSPERIV [Y144A;Y165A]

Variants of: B2
Details: with nedd4_mouse Nedd4, P46935
Remark: another data set of the same source
Target sequence in this assay (P46935 whole entry): as the sequence (P46935 whole entry) above

Row | effect of a mutation on the interaction | Variant
6 | disrupting interaction strength | MSFKRPCPLARYNRTSYFYPTTFSESSEHSHLLVSPVLVASAVIGVVITLSCITIIVGSIRRDRQARIQRHHHRHRRHHHHHRHRRRRHREYASGGHTHSRSSPRMPYACSPAEDWPPPLDVSSEGDVDVTVLWELYPDSPPGAEECMGPGATQLYVPTDAPPPASMTDSCPRLNGALDSDSGQSRSHRQQEQRTQGQSRLHTVSMDTLPPYEAVCGTGSPSDLLPLPGPEPWPSNSQGSPIPTQAPMPSPERIV [Y144A;Y165A]

Variants of: B3
Details: with nedd4_mouse Nedd4, P46935
Target sequence in this assay (P46935 whole entry): as the sequence (P46935 whole entry) above

Row | effect of a mutation on the interaction | Variant
7 | decreasing interaction strength | MALNKNHSEGGGVIVNNTESILMSYDHVELTFNDMKNVPEAFKGTKKGTVYLTPYRVIFLSKGKDAMQSFMMPFYLMKDCEIKQPVFGANFIKGIVKAEAGGGWEGSASYKLTFTAGGAIEFGQRMLQVASQASRGEVPNGAYGYPYMPSGAYVFPPPVANGMYPCPPGYPYPPPPPEFYPGPPMMDGAMGYVQPPPPPAPGPMEPPVSGPSAPATPAAEAKAAEAAASAYYNPGNPHNVYMPTSQPPPPPYYPPEDKKTQ [Y200A]

Variants of: B3
Details: with nedd4_mouse Nedd4, P46935
Remark: another data set of the same source
Target sequence in this assay (P46935 whole entry): as the sequence (P46935 whole entry) above

Row | effect of a mutation on the interaction | Variant
8 | decreasing interaction strength | MALNKNHSEGGGVIVNNTESILMSYDHVELTFNDMKNVPEAFKGTKKGTVYLTPYRVIFLSKGKDAMQSFMMPFYLMKDCEIKQPVFGANFIKGIVKAEAGGGWEGSASYKLTFTAGGAIEFGQRMLQVASQASRGEVPNGAYGYPYMPSGAYVFPPPVANGMYPCPPGYPYPPPPPEFYPGPPMMDGAMGYVQPPPPPAPGPMEPPVSGPSAPATPAAEAKAAEAAASAYYNPGNPHNVYMPTSQPPPPPYYPPEDKKTQ [Y200A]

Variants of: B3
Details: with nedd4_mouse Nedd4, P46935
Remark: another data set of the same source

Row | effect of a mutation on the interaction | Variant
9 | disrupting interaction strength | MALNKNHSEGGGVIVNNTESILMSYDHVELTFNDMKNVPEAFKGTKKGTVYLTPYRVIFLSKGKDAMQSFMMPFYLMKDCEIKQPVFGANFIKGIVKAEAGGGWEGSASYKLTFTAGGAIEFGQRMLQVASQASRGEVPNGAYGYPYMPSGAYVFPPPVANGMYPCPPGYPYPPPPPEFYPGPPMMDGAMGYVQPPPPPAPGPMEPPVSGPSAPATPAAEAKAAEAAASAYYNPGNPHNVYMPTSQPPPPPYYPPEDKKTQ [Y200A]

Variants of: B3
Details: with nedd4_mouse Nedd4, P46935
Remark: another data set of the same source

Row | effect of a mutation on the interaction | Variant
10 | decreasing interaction strength | MALNKNHSEGGGVIVNNTESILMSYDHVELTFNDMKNVPEAFKGTKKGTVYLTPYRVIFLSKGKDAMQSFMMPFYLMKDCEIKQPVFGANFIKGIVKAEAGGGWEGSASYKLTFTAGGAIEFGQRMLQVASQASRGEVPNGAYGYPYMPSGAYVFPPPVANGMYPCPPGYPYPPPPPEFYPGPPMMDGAMGYVQPPPPPYPGPMEPPVSGPSAPATPAAEAKAAEAAASAYYNPGNPHNVYMPTSQPPPPPAYPPEDKKTQ [Y252A]
